Test results published in US20050025777A1, “Particle-mediated delivery of antigens” (priority 1994, published 2005).
Values joined by “and” are separate entries in the source; they are usually repeats but may differ in a detail not shown here. Identical values can stand only once.

Assays:
[1] = target: Human Alpha 1 Anti-Trypsin Protein (Homo sapiens, UniProt P01009); test: Antibody responses to human alpha 1 anti-trypsin protein after immunization; format: in vivo, mice
[2] = Induction of cytotoxic cellular response by HIV gp 120 peptide; details: in vivo
[3] = Accell (no adjuvant), prime + 1 boost
[4] = Accell (no adjuvant), prime only

Chain of Human Alpha 1 Anti-Trypsin Protein (P01009 25-418): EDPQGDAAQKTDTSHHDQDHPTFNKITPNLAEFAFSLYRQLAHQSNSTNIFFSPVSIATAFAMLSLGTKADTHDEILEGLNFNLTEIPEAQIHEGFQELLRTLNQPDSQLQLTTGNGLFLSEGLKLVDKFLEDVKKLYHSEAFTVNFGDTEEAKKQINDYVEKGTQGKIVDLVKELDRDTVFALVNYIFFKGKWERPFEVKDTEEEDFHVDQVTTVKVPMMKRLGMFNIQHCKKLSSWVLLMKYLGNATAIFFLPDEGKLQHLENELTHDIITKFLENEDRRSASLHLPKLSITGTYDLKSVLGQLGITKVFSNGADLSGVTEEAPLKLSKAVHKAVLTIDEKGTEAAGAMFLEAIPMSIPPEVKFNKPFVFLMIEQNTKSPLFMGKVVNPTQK

Compound	number with detectable antibody/total number tested [1, 3]	reciprocal antibody titers [1, 3]	number with detectable antibody/total number tested [1, 4]	reciprocal antibody titers [1, 4]	number with detectable antibody/total number tested ([1]; injection with Freund's adjuvant, prime + 1 boost)	number with detectable antibody/total number tested ([1]; injection with Freund's adjuvant, prime only)	regimen required to induce a cytotoxic cellular response [2]
Human Alpha 1 Anti-Trypsin Protein: Human Alpha 1 Anti-Trypsin Protein used as immunogen	4/4	9500 and 6500 and 5500	4/4	350 and 375 and 210 and 250	4/4	4/4	–
CC[C@H](C)[C@H](NC(=O)[C@@H](NC(=O)[C@@H](NC(=O)[C@H](Cc1ccccc1)NC(=O)[C@H](C)NC(=O)[C@H](CCCNC(=N)N)NC(=O)CNC(=O)[C@@H]1CCCN1C(=O)CNC(=O)[C@H](CCCNC(=N)N)NC(=O)[C@H](CCC(N)=O)NC(=O)[C@@H](NC(=O)[C@@H](N)CCCNC(=N)N)[C@@H](C)CC)C(C)C)[C@@H](C)O)C(=O)NCC(=O)N[C@@H](CCCCN)C(=O)O [HIV gp 120]	–	–	–	–	–	–	a single dose, i.e. the prime, is all that is required
